Experimental data: patent US20200264182A1, “METHOD FOR DETECTING PROSTATE CANCER” (J-OIL MILLS, INC., priority 2017, published 2020)

How the values were obtained:
FAC binding constant = conditions: at 25° C.
Protocol: (§1) Details of the FAC method are described in Patent Document 2 filed by some of the present applicants, for example.
(§2) Binding constants (at 25° C.) of PhoSL, SRL, NSL and LSL belonging to the fucose α1→6 specific lectin for various sugar chains are shown in Tables 2 to 5.

[1] = Binding to sugar chains, summary of Tables 2 to 5; conditions: sugar chains No. 718, 722, 723, 727, 909, 910 and 933
Protocol: as §1, §2
The AAL and AOL bind to the fucose α1→6 sugar chains (sugar chains No. 015, 201 to 203, and 401 to 418), as well as to the glycolipid-type sugar chain excluding the fucose α1→6 (sugar chains No. 718, 722, 723, 727, 909, 910 and 933). The LCL and PSL bind to the fucose α1→6 sugar chain, as well as to sugar chain excluding the α1→6 fucose (sugar chains No. 003, and 005 to 014).

[2] = sugar chain having fucose other than α1→6 fucose

B1: AAL: Aleuria aurantia lectin, has affinity for fucose α1→6 but is not specific; from J-OIL MILLS, Inc. (protein)
chain: PTEFLYTSKIAAISWAATGGRQQRVYFQDLNGKIREAQRGGDNPWTGGSSQNVIGEAKLFSPLAAVTWKSAQGIQIRVYCVNKDNILSEFVYDGSKWITGQLGSVGVKVGSNSKLAALQWGGSESAPPNIRVYYQKSNGSGSSIHEYVWSGKWTAGASFGSTVPGTGIGATAIGPGRLRIYYQATDNKIREHCWDSNSWYVGGFSASASAGVSIAAISWGSTPNIRVYWQKGREELYEAAYGGSWNTPGQIKDASRPTPSLPDTFIAANSSGNIDISVFFQASGVSLQQWQWISGKGWSIGAVVPTGTPAGW
Question: Which results are given for B1?
Answer: Binding constant for sugar chain No. 728 (FAC binding constant; Table 3: sugar chain having fucose other than α1→6 fucose): <1000 M⁻¹; Binding constant for sugar chain No. 419 (FAC binding constant; [2]): <1000 M⁻¹; Binding constant for sugar chain No. 420 (FAC binding constant; [2]): <1000 M⁻¹; Binding constant for sugar chain No. 718 (FAC binding constant; [2]): 65000 M⁻¹; Binding constant for sugar chain No. 719 (FAC binding constant; [2]): <1000 M⁻¹; Binding constant for sugar chain No. 720 (FAC binding constant; [2]): <1000 M⁻¹; Binding constant for sugar chain No. 721 (FAC binding constant; [2]): <1000 M⁻¹; Binding constant for sugar chain No. 722 (FAC binding constant; [2]): <1000 M⁻¹; Binding constant for sugar chain No. 723 (FAC binding constant; [2]): 35000 M⁻¹; Binding constant for sugar chain No. 726 (FAC binding constant; [2]): <1000 M⁻¹; Binding constant for sugar chain No. 727 (FAC binding constant; [2]): 130000 M⁻¹; Binding constant for sugar chain No. 729 (FAC binding constant; [2]): <1000 M⁻¹; Binding constant for sugar chain No. 730 (FAC binding constant; [2]): <1000 M⁻¹; Binding constant for sugar chain No. 731 (FAC binding constant; [2]): <1000 M⁻¹; Binding constant for sugar chain No. 739 (FAC binding constant; [2]): <1000 M⁻¹; Binding constant for sugar chain No. 909 (FAC binding constant; [2]): 310000 M⁻¹; Binding constant for sugar chain No. 910 (FAC binding constant; [2]): 90000 M⁻¹; Binding constant for sugar chain No. 931 (FAC binding constant; [2]): <1000 M⁻¹; Binding constant for sugar chain No. 932 (FAC binding constant; [2]): <1000 M⁻¹; Binding constant for sugar chain No. 933 (FAC binding constant; [2]): 210000 M⁻¹; Binding constant for sugar chain No. 001 (FAC binding constant; sugar chain having no fucose): <1000 M⁻¹; Binding constant for sugar chain No. 002 (FAC binding constant; sugar chain having no fucose): <1000 M⁻¹; Binding constant for sugar chain No. 003 (FAC binding constant; sugar chain having no fucose): <1000 M⁻¹; Binding constant for sugar chain No. 004 (FAC binding constant; sugar chain having no fucose): <1000 M⁻¹; Binding constant for sugar chain No. 005 (FAC binding constant; sugar chain having no fucose): <1000 M⁻¹; Binding constant for sugar chain No. 006 (FAC binding constant; sugar chain having no fucose): <1000 M⁻¹; Binding constant for sugar chain No. 007 (FAC binding constant; sugar chain having no fucose): <1000 M⁻¹; Binding constant for sugar chain No. 008 (FAC binding constant; sugar chain having no fucose): <1000 M⁻¹; Binding constant for sugar chain No. 009 (FAC binding constant; sugar chain having no fucose): <1000 M⁻¹; Binding constant for sugar chain No. 010 (FAC binding constant; sugar chain having no fucose): <1000 M⁻¹; Binding constant for sugar chain No. 011 (FAC binding constant; sugar chain having no fucose): <1000 M⁻¹; Binding constant for sugar chain No. 012 (FAC binding constant; sugar chain having no fucose): <1000 M⁻¹; Binding constant for sugar chain No. 013 (FAC binding constant; sugar chain having no fucose): <1000 M⁻¹; Binding constant for sugar chain No. 014 (FAC binding constant; sugar chain having no fucose): <1000 M⁻¹; Binding constant for sugar chain No. 101 (FAC binding constant; sugar chain having no fucose): <1000 M⁻¹; Binding constant for sugar chain No. 103 (FAC binding constant; sugar chain having no fucose): <1000 M⁻¹; Binding constant for sugar chain No. 104 (FAC binding constant; sugar chain having no fucose): <1000 M⁻¹; Binding constant for sugar chain No. 105 (FAC binding constant; sugar chain having no fucose): <1000 M⁻¹; Binding constant for sugar chain No. 107 (FAC binding constant; sugar chain having no fucose): <1000 M⁻¹; Binding constant for sugar chain No. 108 (FAC binding constant; sugar chain having no fucose): <1000 M⁻¹; Binding constant for sugar chain No. 301 (FAC binding constant; sugar chain having no fucose): <1000 M⁻¹; Binding constant for sugar chain No. 304 (FAC binding constant; sugar chain having no fucose): <1000 M⁻¹; Binding constant for sugar chain No. 305 (FAC binding constant; sugar chain having no fucose): <1000 M⁻¹; Binding constant for sugar chain No. 307 (FAC binding constant; sugar chain having no fucose): <1000 M⁻¹; Binding constant for sugar chain No. 308 (FAC binding constant; sugar chain having no fucose): <1000 M⁻¹; Binding constant for sugar chain No. 313 (FAC binding constant; sugar chain having no fucose): <1000 M⁻¹; Binding constant for sugar chain No. 314 (FAC binding constant; sugar chain having no fucose): <1000 M⁻¹; Binding constant for sugar chain No. 323 (FAC binding constant; sugar chain having no fucose): <1000 M⁻¹; Binding constant for sugar chain No. 501 (FAC binding constant; sugar chain having no fucose): <1000 M⁻¹; Binding constant for sugar chain No. 502 (FAC binding constant; sugar chain having no fucose): <1000 M⁻¹; Binding constant for sugar chain No. 503 (FAC binding constant; sugar chain having no fucose): <1000 M⁻¹; Binding constant for sugar chain No. 504 (FAC binding constant; sugar chain having no fucose): <1000 M⁻¹; Binding constant for sugar chain No. 701 (FAC binding constant; sugar chain having no fucose): <1000 M⁻¹; Binding constant for sugar chain No. 702 (FAC binding constant; sugar chain having no fucose): <1000 M⁻¹; Binding constant for sugar chain No. 703 (FAC binding constant; sugar chain having no fucose): <1000 M⁻¹; Binding constant for sugar chain No. 704 (FAC binding constant; sugar chain having no fucose): <1000 M⁻¹; Binding constant for sugar chain No. 705 (FAC binding constant; sugar chain having no fucose): <1000 M⁻¹; Binding constant for sugar chain No. 706 (FAC binding constant; sugar chain having no fucose): <1000 M⁻¹; Binding constant for sugar chain No. 707 (FAC binding constant; sugar chain having no fucose): <1000 M⁻¹; Binding constant for sugar chain No. 708 (FAC binding constant; sugar chain having no fucose): <1000 M⁻¹; Binding constant for sugar chain No. 709 (FAC binding constant; sugar chain having no fucose): <1000 M⁻¹; Binding constant for sugar chain No. 710 (FAC binding constant; sugar chain having no fucose): <1000 M⁻¹; Binding constant for sugar chain No. 711 (FAC binding constant; sugar chain having no fucose): <1000 M⁻¹; Binding constant for sugar chain No. 712 (FAC binding constant; sugar chain having no fucose): <1000 M⁻¹; Binding constant for sugar chain No. 713 (FAC binding constant; sugar chain having no fucose): <1000 M⁻¹; Binding constant for sugar chain No. 715 (FAC binding constant; sugar chain having no fucose): <1000 M⁻¹; Binding constant for sugar chain No. 716 (FAC binding constant; sugar chain having no fucose): <1000 M⁻¹; Binding constant for sugar chain No. 717 (FAC binding constant; sugar chain having no fucose): <1000 M⁻¹; Binding constant for sugar chain No. 724 (FAC binding constant; sugar chain having no fucose): <1000 M⁻¹; Binding constant for sugar chain No. 725 (FAC binding constant; sugar chain having no fucose): <1000 M⁻¹; Binding constant for sugar chain No. 732 (FAC binding constant; sugar chain having no fucose): <1000 M⁻¹; Binding constant for sugar chain No. 733 (FAC binding constant; sugar chain having no fucose): <1000 M⁻¹; Binding constant for sugar chain No. 734 (FAC binding constant; sugar chain having no fucose): <1000 M⁻¹; Binding constant for sugar chain No. 735 (FAC binding constant; sugar chain having no fucose): <1000 M⁻¹; Binding constant for sugar chain No. 736 (FAC binding constant; sugar chain having no fucose): <1000 M⁻¹; Binding constant for sugar chain No. 737 (FAC binding constant; sugar chain having no fucose): <1000 M⁻¹; Binding constant for sugar chain No. 738 (FAC binding constant; sugar chain having no fucose): <1000 M⁻¹; Binding constant for sugar chain No. 901 (FAC binding constant; sugar chain having no fucose): <1000 M⁻¹; Binding constant for sugar chain No. 902 (FAC binding constant; sugar chain having no fucose): <1000 M⁻¹; Binding constant for sugar chain No. 903 (FAC binding constant; sugar chain having no fucose): <1000 M⁻¹; Binding constant for sugar chain No. 905 (FAC binding constant; sugar chain having no fucose): <1000 M⁻¹; Binding constant for sugar chain No. 906 (FAC binding constant; sugar chain having no fucose): <1000 M⁻¹; Binding constant for sugar chain No. 907 (FAC binding constant; sugar chain having no fucose): <1000 M⁻¹; Binding constant for sugar chain No. 015 (FAC binding constant; sugar chain having α1→6 fucose): 91000 M⁻¹; Binding constant for sugar chain No. 201 (FAC binding constant; sugar chain having α1→6 fucose): 51000 M⁻¹; Binding constant for sugar chain No. 202 (FAC binding constant; sugar chain having α1→6 fucose): 54000 M⁻¹; Binding constant for sugar chain No. 203 (FAC binding constant; sugar chain having α1→6 fucose): 66000 M⁻¹; Binding constant for sugar chain No. 401 (FAC binding constant; sugar chain having α1→6 fucose): 55000 M⁻¹; Binding constant for sugar chain No. 402 (FAC binding constant; sugar chain having α1→6 fucose): 11000 M⁻¹; Binding constant for sugar chain No. 403 (FAC binding constant; sugar chain having α1→6 fucose): 52000 M⁻¹; Binding constant for sugar chain No. 404 (FAC binding constant; sugar chain having α1→6 fucose): 65000 M⁻¹; Binding constant for sugar chain No. 405 (FAC binding constant; sugar chain having α1→6 fucose): 56000 M⁻¹; Binding constant for sugar chain No. 406 (FAC binding constant; sugar chain having α1→6 fucose): 47000 M⁻¹; Binding constant for sugar chain No. 407 (FAC binding constant; sugar chain having α1→6 fucose): 45000 M⁻¹; Binding constant for sugar chain No. 410 (FAC binding constant; sugar chain having α1→6 fucose): 38000 M⁻¹; Binding constant for sugar chain No. 413 (FAC binding constant; sugar chain having α1→6 fucose): 32000 M⁻¹; Binding constant for sugar chain No. 418 (FAC binding constant; sugar chain having α1→6 fucose): <1000 M⁻¹; Binding constant for sugar chain No. 601 (FAC binding constant; sugar chain having α1→6 fucose): 61000 M⁻¹; Binding constant for sugar chain No. 602 (FAC binding constant; sugar chain having α1→6 fucose): 52000 M⁻¹; binding to the glycolipid-type sugar chain excluding the fucose α1→6 (in words) [1]: bind
